Legend:
Assay in all cases: cell-based or functional assay
FOLR1 [1] = target: T1, FOLR1 (human, UniProt P15328 25-234)
FOLR1 [2] = target: T1, FOLR1; remark: listed apart in the source
HER2 [3] = target: T2, HER2 (human, UniProt P04626 23-1255)
HER2 [4] = target: T2, HER2; remark: listed apart in the source

T1 sequence (P15328 25-234): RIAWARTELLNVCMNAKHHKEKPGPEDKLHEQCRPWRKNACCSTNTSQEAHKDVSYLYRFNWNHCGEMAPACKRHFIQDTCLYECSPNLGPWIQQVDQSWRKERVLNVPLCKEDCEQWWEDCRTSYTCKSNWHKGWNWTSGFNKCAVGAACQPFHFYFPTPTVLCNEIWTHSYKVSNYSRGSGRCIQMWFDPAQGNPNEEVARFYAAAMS

Row | Binder | EC50 (pM), T cell-dependent cell cytolysis (TDCC), Cal-51 cells (FOLR1 [1]) [pM] | EC50 (pM), T cell-dependent cell cytolysis (TDCC), T47D cells (FOLR1 [1]) [pM] | EC50 (pM) for eliciting IFN-γ secretion by T cells, T47D cells (FOLR1 [2]) [pM] | EC50 (pM) for eliciting IL-2 secretion by T cells, T47D cells (FOLR1 [2]) [pM] | EC50 (pM) for eliciting IL-10 secretion by T cells, T47D cells (FOLR1 [2]) [pM] | EC50 (pM) for eliciting IL-13 secretion by T cells, T47D cells (FOLR1 [2]) [pM] | EC50 (pM) for eliciting TNF-α secretion by T cells, T47D cells (FOLR1 [2]) [pM] | EC50 (pM), T cell-dependent cell cytolysis (TDCC), JIMT-1 cells (HER2 [3]) [pM] | EC50 (pM), T cell-dependent cell cytolysis (TDCC), T47D cells (HER2 [3]) [pM] | EC50 (pM) for eliciting IFN-γ secretion by T cells, JIMT-1 cells (HER2 [4]) [pM] | EC50 (pM) for eliciting IL-2 secretion by T cells, JIMT-1 cells (HER2 [4]) [pM] | EC50 (pM) for eliciting IL-10 secretion by T cells, JIMT-1 cells (HER2 [4]) [pM] | EC50 (pM) for eliciting IL-13 secretion by T cells, JIMT-1 cells (HER2 [4]) [pM] | EC50 (pM) for eliciting TNF-α secretion by T cells, JIMT-1 cells (HER2 [4]) [pM]
1 | anti-FOLR1/CD3 Bi-Fc (bispecific antibody) chain 1: not shown chain 2: HMSSVSAQAAAEPKSSDKTHTCPPCPAPEAAGGPSVFLFPPKPKDTLMISRTPEVTCVVVDVSHEDPEVKFNWYVDGVEVHNAKTKPREEQYNSTYRVVSVLTVLHQDWLNGKEYKCKVSNKALPAPIEKTISKAKGQPREPQVYTLPPSREEMTKNQVSLTCLVKGFYPSDIAVEWESNGQPENNYDTTPPVLDSDGSFFLYSDLTVDKSRWQQGNVFSCSVMHEALHNHYTQKSLSLSPGK | 1.27 | 1.35 | 48.6 | 67.3 | 110 | 127 | 41.2 |  |  |  |  |  |  | 
2 | anti-HER2/CD3 Bi-Fc (bispecific antibody) chain 1: not shown chain 2: HMSSVSAQAAAEPKSSDKTHTCPPCPAPEAAGGPSVFLFPPKPKDTLMISRTPEVTCVVVDVSHEDPEVKFNWYVDGVEVHNAKTKPREEQYNSTYRVVSVLTVLHQDWLNGKEYKCKVSNKALPAPIEKTISKAKGQPREPQVYTLPPSREEMTKNQVSLTCLVKGFYPSDIAVEWESNGQPENNYDTTPPVLDSDGSFFLYSDLTVDKSRWQQGNVFSCSVMHEALHNHYTQKSLSLSPGK |  |  |  |  |  |  |  | 11.5 | 1.03 | 32.9 | 22.3 | 9.6 | 16.4 | 19.5

From patent publication US20180230220A1 (Amgen, published 2018)
